The text below walks through data of paper PMC10602909.

pKd: −log10 of the molar value.

As usually defined, the pKd is −log10 of the Kd, conventionally taken in molar units. Read a low pKd as a large Kd.

For this series, the system named is ZNF506 ZF1-8 (C-terminal zinc finger array) (human). Nature of the series: ITC. Particulars: ITC (MicroCal PEAQ-ITC): 100 mM Tris pH 8, 500 mM NaCl, 25 uM ZnCl2, 10 mM reduced glutathione; protein 20 uM, DNA 200 nM as printed; temperature not stated.

With PBS-Pro 28 bp dsDNA probe, the pKd was 6.08.
